Results on two molecules are retold here after patent US20220064275A1 (SCHOLAR ROCK, published 2022).

The target of assay [1] is T1, human LTBP1-proTGFβ1 complex (human, UniProt Q14766 873-1507).
T1 construct: range 873-1507; biotinylated in Octet and MSD-SET; also called hLTBP1-proTGFβ1; hLTBP1
Briefly: BLI (Octet). For orientation: Biolayer interferometry detects binding as a change in optical thickness at a sensor tip.

The target in assay [2] is T2, human LTBP3-proTGFβ1 complex (human, UniProt Q9NS15 866-1039).
T2 construct: range 866-1039; also called hLTBP3-proTGFβ1; hLTBP3
Kind of assay: BLI (Octet).

Assay [3] concerns the target T3, human GARP-proTGFβ1 complex (human, UniProt Q14392 20-627; P01137 30-390).
T3 construct: also called hGARP-proTGFβ1; hGARP
Briefly: BLI (Octet).

Assay [4] deals with T4, human LRRC33-proTGFβ1 complex (human, UniProt Q86YC3 19-650; P01137 30-390).
T4 construct: also called hLRRC33-proTGFβ1; hLRRC33
Briefly: BLI (Octet).

The target in assay [5] is hLTBP1-proTGFβ1 complex made by transfected cells (cell-based potency assay) (human, UniProt Q14766 347-1721; P01137 30-390). Kind of assay: cell-based or functional assay.
The target of assay [6] is hLTBP3-proTGFβ1 complex made by transfected cells (cell-based potency assay) (human, UniProt Q9NS15 44-1303; P01137 30-390). Kind of assay: cell-based or functional assay.
The target in assay [7] is hGARP-proTGFβ1 complex on cells (human, UniProt Q14392 20-662; P01137 30-390). Kind of assay: cell-based or functional assay.
Assay [8] deals with hLRRC33-proTGFβ1 complex on cells (human, UniProt Q86YC3 19-692; P01137 30-390). Briefly: cell-based or functional assay.
Assay [9] addresses T1, human LTBP1-proTGFβ1 complex. Kind of assay: MSD-SET, solution equilibrium titration.
Assay [10] addresses T2, human LTBP3-proTGFβ1 complex. Briefly: MSD-SET, solution equilibrium titration.
In assay [11] the target is T3, human GARP-proTGFβ1 complex. Kind of assay: MSD-SET, solution equilibrium titration.
The target of assay [12] is T4, human LRRC33-proTGFβ1 complex. Kind of assay: MSD-SET, solution equilibrium titration.
The target in assay [13] is T5, human proTGFβ1 C4S (human, UniProt P01137 30-390).
T5 construct: Small latent complex without presenting molecule; the cysteine that links to presenting molecules is changed to serine; also called small latent complex proTGFβ1 C4S; latent TGFβ1
Kind of assay: BLI (Octet Red384), proTGFβ1 C4S coupled to AR2G sensors, dissociation at pH 5; dissociation at pH 5. As for the experimental part: (§1) The antibodies were tested against sensor-immobilized human proTGFβ1 C4S, which contains a mutation in the prodomain to facilitate proTGFβ1 expression without disulfide linkage to a presentation molecule. Polystyrene 96-well black half area plates (Greiner Bio-One) and amine reactive second-generation (AR2G) biosensors (FortéBio) were utilized for this experiment.
(§2) AR2G biosensors were first allowed to hydrate in water offline for at least 10 minutes before the initiation of the experiment. Upon initiation of the experiment, AR2G tips were equilibrated in water for 1 minute. Then, the tips were moved into an activation solution for 5 minutes. The activation solution consists of 18 parts water, 1 part 400 mM EDC (1-Ethyl-3-[3-dimethylaminopropyl] carbodiimide hydrochloride), and 1 part 200 mM s-NHS (N-hydroxysulfosuccinimide). The activation solution is prepared immediately before use in the experiment. After tip activation, the tips were loaded for 3 minutes with a 10 ug/mL solution of human proTGFβ1 C4S in 10 mM sodium acetate buffer pH 5. After loading, the tips were quenched in ethanolamine pH 8.5 for 15 minutes. The tips were then baseline/blocked with a 20 minute incubation in 1× enhanced kinetics buffer.

For assay [14], the target named is T5, human proTGFβ1 C4S. Briefly: BLI (Octet Red384), proTGFβ1 C4S coupled to AR2G sensors, dissociation at pH 7; dissociation at pH 7. The method, then: as §1, §2
For another assay, the target named is T6, human proTGFβ1 C4S/R249A (human, UniProt P01137 30-390).
T6 construct: Expressed with kifunensine and treated with endoglycosidase H; also called uncleavable human proTGFβ1 variant
Briefly: X-ray crystal structure of the ternary complex.

T2 sequence (Q9NS15 866-1039 limits assumed, chain 1 of 2): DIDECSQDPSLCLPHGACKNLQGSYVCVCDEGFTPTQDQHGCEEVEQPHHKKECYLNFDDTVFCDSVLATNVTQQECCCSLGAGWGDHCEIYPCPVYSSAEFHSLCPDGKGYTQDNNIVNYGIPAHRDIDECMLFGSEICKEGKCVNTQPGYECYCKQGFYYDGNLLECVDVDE
T2 sequence (chain, as listed by the source limits assumed, chain 2 of 2): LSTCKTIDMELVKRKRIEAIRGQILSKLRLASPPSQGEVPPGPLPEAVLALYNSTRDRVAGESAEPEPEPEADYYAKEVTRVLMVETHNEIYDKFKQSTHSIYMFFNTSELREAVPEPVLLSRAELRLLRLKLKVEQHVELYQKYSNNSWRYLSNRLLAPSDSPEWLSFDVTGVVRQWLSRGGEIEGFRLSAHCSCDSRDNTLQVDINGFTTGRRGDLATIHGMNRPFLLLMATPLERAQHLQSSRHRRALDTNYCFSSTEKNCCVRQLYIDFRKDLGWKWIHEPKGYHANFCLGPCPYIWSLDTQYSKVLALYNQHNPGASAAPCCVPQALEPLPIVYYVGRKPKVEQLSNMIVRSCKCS
T1 sequence (Q14766 873-1507 limits assumed, chain 1 of 2): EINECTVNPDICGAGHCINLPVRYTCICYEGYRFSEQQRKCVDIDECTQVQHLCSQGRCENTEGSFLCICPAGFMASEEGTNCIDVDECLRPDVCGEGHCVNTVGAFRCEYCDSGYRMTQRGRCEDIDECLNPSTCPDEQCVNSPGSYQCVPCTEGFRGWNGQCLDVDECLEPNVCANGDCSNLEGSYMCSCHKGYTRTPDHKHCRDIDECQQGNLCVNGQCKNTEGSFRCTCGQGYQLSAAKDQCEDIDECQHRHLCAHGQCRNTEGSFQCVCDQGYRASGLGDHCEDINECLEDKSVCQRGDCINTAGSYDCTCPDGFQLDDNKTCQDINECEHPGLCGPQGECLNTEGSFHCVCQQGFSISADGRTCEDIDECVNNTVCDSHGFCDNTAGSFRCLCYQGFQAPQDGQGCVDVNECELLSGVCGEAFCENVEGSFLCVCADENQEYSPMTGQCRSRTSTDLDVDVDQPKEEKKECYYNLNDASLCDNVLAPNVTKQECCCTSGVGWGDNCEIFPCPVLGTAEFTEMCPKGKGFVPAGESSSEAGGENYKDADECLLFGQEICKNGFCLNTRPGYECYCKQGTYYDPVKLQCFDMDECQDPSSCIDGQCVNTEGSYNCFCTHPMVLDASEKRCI
T1 sequence (chain, as listed by the source limits assumed, chain 2 of 2): as the sequence (chain, as listed by the source limits assumed, chain 2 of 2) above
T5 sequence (P01137 other isoform, or with tags, fused parts or gaps): as the sequence (chain, as listed by the source limits assumed, chain 2 of 2) above, with C4S counted along it
T3 sequence (Q14392 20-627, chain 1 of 2): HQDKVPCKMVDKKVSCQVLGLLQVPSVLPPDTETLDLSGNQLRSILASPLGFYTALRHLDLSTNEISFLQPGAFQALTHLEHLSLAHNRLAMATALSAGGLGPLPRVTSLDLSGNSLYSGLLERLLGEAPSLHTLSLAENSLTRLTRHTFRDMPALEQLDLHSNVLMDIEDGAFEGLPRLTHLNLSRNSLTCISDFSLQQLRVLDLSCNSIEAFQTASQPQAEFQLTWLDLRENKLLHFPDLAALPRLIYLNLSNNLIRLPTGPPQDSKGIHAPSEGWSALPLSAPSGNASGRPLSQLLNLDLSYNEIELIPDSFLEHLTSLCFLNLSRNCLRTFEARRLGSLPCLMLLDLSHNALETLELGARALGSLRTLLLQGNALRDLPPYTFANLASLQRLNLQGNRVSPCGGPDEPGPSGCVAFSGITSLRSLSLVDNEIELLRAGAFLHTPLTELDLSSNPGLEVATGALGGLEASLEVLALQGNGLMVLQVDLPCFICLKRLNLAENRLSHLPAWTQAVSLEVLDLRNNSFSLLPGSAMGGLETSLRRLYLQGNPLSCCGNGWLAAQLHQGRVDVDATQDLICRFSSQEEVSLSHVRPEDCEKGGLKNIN
T3 sequence (P01137 30-390, chain 2 of 2): as the sequence (chain, as listed by the source limits assumed, chain 2 of 2) above
T4 sequence (Q86YC3 other isoform, or with tags, fused parts or gaps limits assumed, chain 1 of 2): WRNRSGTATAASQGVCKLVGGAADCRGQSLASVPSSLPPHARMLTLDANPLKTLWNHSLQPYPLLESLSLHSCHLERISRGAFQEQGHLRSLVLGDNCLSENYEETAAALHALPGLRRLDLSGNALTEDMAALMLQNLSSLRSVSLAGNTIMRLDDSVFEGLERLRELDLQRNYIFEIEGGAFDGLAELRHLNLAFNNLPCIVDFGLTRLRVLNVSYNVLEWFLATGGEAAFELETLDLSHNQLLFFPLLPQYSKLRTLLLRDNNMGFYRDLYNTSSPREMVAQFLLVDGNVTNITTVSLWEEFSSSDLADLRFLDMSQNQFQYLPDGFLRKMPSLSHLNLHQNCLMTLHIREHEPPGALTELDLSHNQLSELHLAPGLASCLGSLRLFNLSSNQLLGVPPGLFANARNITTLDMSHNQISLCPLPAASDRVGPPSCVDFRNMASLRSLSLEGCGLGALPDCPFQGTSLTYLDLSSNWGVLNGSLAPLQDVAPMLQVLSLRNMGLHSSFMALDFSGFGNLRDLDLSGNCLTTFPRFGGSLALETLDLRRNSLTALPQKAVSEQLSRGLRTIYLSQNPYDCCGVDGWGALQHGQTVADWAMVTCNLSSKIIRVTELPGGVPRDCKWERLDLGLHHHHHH
T4 sequence (P01137 30-390 limits assumed, chain 2 of 2): as the sequence (chain, as listed by the source limits assumed, chain 2 of 2) above
T6 sequence (P01137 other isoform, or with tags, fused parts or gaps R249A R249A): as the sequence (chain, as listed by the source limits assumed, chain 2 of 2) above, with C4S, R249A counted along it
Text for human proTGFβ1 C4S/R249A: In this work, an uncleavable human proTGFβ1 C4S/R249A variant was used that spans residues 30-390 based on the full-length sequence of human proTGFβ1 (Uniprot ID P01137). The numbering system that will be used for the rest of this document will designate position 1 as the first amino acid residue after the removal of the signal sequence for proTGFβ isoforms. The C4S mutation renders proTGFβ1 not capable of covalent crosslinking to any known presenting molecules, e.g. LTBPs and GARP, while the R249A renders proTGFβ1 resistant to proprotein convertase/furin protease cleavage, thus maintaining proTGFβ1 in its uncleaved, proprotein form. […] The AbX Fab in this context was used as an auxiliary protein, which acts as a crystallization chaperone to increase the probability of obtaining protein crystals.
Crystallization experiments were performed at room temperature in a sitting drop format. […] X-ray diffraction data were collected at the SER-CAT beamline 22-ID at the Advanced Photon Source (APS) at the Argonne National Laboratory (ANL) using a Dectris Eiger 16M detector. The diffraction images were processed with X-ray Detector Software (XDS) in space group C2221 with an asymmetric unit containing one half of a 2:2:2 complex. The structure of the ternary complex was solved by molecular replacement using Phaser.

B1: Ab2 (antibody, human IgG4 S228P, kappa, V domains shown)
VH: EVQLLESGGGLVQPGGSLRLSCAASGFTFADYAMTWVRQAPGKGLEWVSAISGSGAATYFADSVKGRFTISRDNSKNTLYLQMNSLRAEDTAVYYCARVSSGHWDFDYWGQGTLVTVSS
VL: DIQLTQSPSSLSASVGDRVTITCRASQSISSYLNWYQQKPGKAPKLLIYAASNLQSGVPSRFSGSGSGTDFTLTISSLQPEDFATYYCQQTYTVPLTFGGGTKVEIKR
For orientation: Kd means the constant that tells how readily two partners part at equilibrium. The koff is the first-order rate constant of dissociation. As to B1, the Kd was found to be 165 pM in assay [1]; 148 pM in assay [2]; 778 pM in [3]; 508 pM in assay [4]; 360 pM in [9]; 171 pM in assay [10]. Also, the Kd in [11] is 1400 pM; in assay [12] it was 3200 pM. Further, the “IC50, reporter cell assay of TGFβ1 activation” value in assay [5] worked out at 3390 pM; in assay [6], 867 pM; in assay [7] it was 776 pM; in [8], 1380 pM. The koff was determined as 0.00561 s⁻¹ with human proTGFβ1 C4S [13] and 0.00278 s⁻¹ in the assay with human proTGFβ1 C4S [14].

B2: Ab2 Fab (Fab, V domains shown)
VH: EVQLLESGGGLVQPGGSLRLSCAASGFTFADYAMTWVRQAPGKGLEWVSAISGSGAATYFADSVKGRFTISRDNSKNTLYLQMNSLRAEDTAVYYCARVSSGHWDFDYWGQGTLVTVSS
VL: DIQLTQSPSSLSASVGDRVTITCRASQSISSYLNWYQQKPGKAPKLLIYAASNLQSGVPSRFSGSGSGTDFTLTISSLQPEDFATYYCQQTYTVPLTFGGGTKVEIK
notes: Fab of Ab2; C-terminally 6x-His tagged in the crystallography work
As to B2, in the assay with human proTGFβ1 C4S/R249A, the binding result was “binds”.
